The results in this text go back to US20170247437A1 (ONCOMED PHARMACEUTICALS, published 2017).

The target in assay [1] is FLAG-RSPO1furin-CD4TM-GFP (human) (UniProt Q2MKA7). Kind of assay: FACS on HEK-293 cells transiently expressing FLAG-RSPO1furin-CD4TM-GFP; secondary APC-conjugated anti-IgG alone, no primary antibody.
In assay [2] the target is T1, recombinant human RSPO1 (R&D Systems) (human, UniProt Q2MKA7 21-263).
T1 construct: Bought protein
Kind of assay: ELISA on plate-coated recombinant human RSPO1, anti-human IgG Fc-HRP detection, 4-parameter fit, 3 runs. The method, then: High binding 96 well plates (Nalge Nunc International) were coated with […] recombinant human RSPO1 (R&D Systems) in coating buffer (1× PBS, pH 7.4) overnight at 2-8° C. The plates were washed 3-6 times after each step with 300 μl/well of 1× PBS, 0.05% Tween-20, pH 7.4. After coating, the plates were incubated with 250 μl/well of blocking buffer (1× PBS, 0.1% gelatin, 0.1% TWEEN-20, pH 7.4) for 60 minutes ±10 minutes at room temperature (19-25° C.). Plates were washed and incubated with 100 μl/well of first generation humanized anti-RSPO1 antibody h89M5-H2L2 and second generation humanized antibody h89M5-H8L5 for 120 minutes ±10 minutes at room temperature. First generation humanized anti-RSPO1 antibody h89M5-H2L2 was use as the reference standard and the positive control. The antibodies were prepared at an initial concentration of 2.5 μg/ml and diluted 3-fold serially, ranging from 2.5 μg/ml to […]. Each sample was tested in duplicate and the experiment was run 3 times. […] The binding of the antibodies to RSPO1 was measured by absorbance at 450 nm and 650 nm using an ELISA plate reader (Molecular Devices). The results were analyzed using a 4-parameter curve fit, and relative binding potency was determined by comparing EC₅₀ values of the reference to that of the samples.
A general note: ELISA stands for enzyme-linked immunosorbent assay.

T1 sequence (Q2MKA7 21-263 limits assumed): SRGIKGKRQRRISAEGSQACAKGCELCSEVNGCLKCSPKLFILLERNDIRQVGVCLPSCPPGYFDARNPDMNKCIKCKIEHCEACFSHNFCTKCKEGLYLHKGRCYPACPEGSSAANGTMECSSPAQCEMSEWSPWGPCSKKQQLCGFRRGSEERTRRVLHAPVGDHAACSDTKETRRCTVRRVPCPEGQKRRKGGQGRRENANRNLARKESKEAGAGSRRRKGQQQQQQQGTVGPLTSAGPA
FLAG-RSPO1furin-CD4TM-GFP (human), sequence (Q2MKA7 34-135): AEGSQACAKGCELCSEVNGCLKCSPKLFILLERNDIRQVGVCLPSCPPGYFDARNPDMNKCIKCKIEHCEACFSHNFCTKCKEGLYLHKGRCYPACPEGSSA

Secondary Ab Control (antibody) returned an MFI in assay [1] of 3.2.

B1: second generation humanized anti-RSPO1 antibody h89M5-H8L5 (antibody, human IgG1, kappa, V domains shown)
VH: EVQLVQSGAEVKKPGESLRISCKGSGYSFTGYTMHWVRQMPGKGLEWMGGINPNNGGTTYNQNFKGHVTISADKSISTAYLQWSSLKASDTAMYYCARKEFSDGYYFFAYWGQGTLVTVSS
VL: DIVMTQSPDSLAVSLGERATINCKASQDVIFAVAWYQQKPGQPPKLLIYWASTRHTGVPDRFSGSGSGTDFTLTISSLQAEDVAVYYCQQHYSTPWTFGGGTKVEIKR
notes: Humanized version of mouse antibody 89M5, with the same CDRs as h89M5-H2L2; also called h89R5-H8L5
Turning to B1, the “mean relative binding potency (EC50 against reference h89M5-H2L2)” value in assay [2] was determined as 120%.
